Experimental data reported in paper PMC9018529 (Molecular microbiology, 2022).

Target: the molecule itself
Assay: SEC

B1: SymE (Escherichia coli MG1655), untagged after TEV cleavage of His6-TEV-SymE (natural protein, E. coli MG1655, UniProt P39394 1-113, looked up)
chain: MTDTHSIAQPFEAEVSPANNRHVTVGYASRYPDYSRIPAITLKGQWLEAAGFATGTAVDVKVMEGCIVLTAQPPAAEESELMQSLRQVCKLSARKQKQVQAFIGVIAGKQKVA
- stoichiometry N: ~4
